Biological target: T1, hCDH6aa54-615 APPavi (human, UniProt P55285 54-615)
T1 sequence: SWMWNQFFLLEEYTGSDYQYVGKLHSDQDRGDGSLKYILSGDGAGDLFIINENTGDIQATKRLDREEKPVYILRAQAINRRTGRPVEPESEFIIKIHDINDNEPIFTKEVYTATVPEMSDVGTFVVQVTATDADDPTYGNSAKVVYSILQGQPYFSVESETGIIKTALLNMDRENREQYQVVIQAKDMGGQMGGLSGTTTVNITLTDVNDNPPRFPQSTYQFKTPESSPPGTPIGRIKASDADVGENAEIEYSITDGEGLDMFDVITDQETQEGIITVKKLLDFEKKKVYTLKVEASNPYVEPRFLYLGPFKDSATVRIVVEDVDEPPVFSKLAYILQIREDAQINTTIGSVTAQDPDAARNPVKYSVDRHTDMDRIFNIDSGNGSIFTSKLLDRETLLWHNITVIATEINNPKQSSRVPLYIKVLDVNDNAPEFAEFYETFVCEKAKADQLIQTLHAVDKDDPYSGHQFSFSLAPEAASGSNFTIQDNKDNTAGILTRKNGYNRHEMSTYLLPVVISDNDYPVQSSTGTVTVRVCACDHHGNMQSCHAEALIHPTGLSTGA
Assay: SPR binning

response of secondary antibody on primary antibody-CDH6 complex: 16.5
B1: NOV0712 (antibody, human IgG1, kappa, V domains shown)
VH: QVQLLESGGGLVQPGGSLRLSCAASGFTFSSHGMHWVRQAPGKGLEWVSVISGSGSNTGYADSVKGRFTISRDNSKNTLYLQMNSLRAEDTAVYYCARQWGSYAFDSWGQGTLVTVSS
VL: DIQMTQSPSSLSASVGDRVTITCRASQSISSYLNWYQQKPGKAPKLLIYAVSTLQSGVPSRFSGSGSGTDFTLTISSLQPEDFATYYCQQSGTFPPTTFGQGTKVEIKR
